Measured values as given in patent US20120058499.

What was measured:
[1] = target: hSUMO2-amino-luciferin, P61956
[2] = target: T1, Z-Arg-Leu-Arg-Gly-Gly (SEQ ID NO: 1)-amino-luciferin
T1 chain: RLRGG

[3] = target: ubiquitin-7-amino-4-methylcoumarin, P0CG47
[4] = target: ubiquitin-rhodamine110, P0CG47
Sequence of ubiquitin-rhodamine110, P0CG47 (P0CG47 whole entry, looked up): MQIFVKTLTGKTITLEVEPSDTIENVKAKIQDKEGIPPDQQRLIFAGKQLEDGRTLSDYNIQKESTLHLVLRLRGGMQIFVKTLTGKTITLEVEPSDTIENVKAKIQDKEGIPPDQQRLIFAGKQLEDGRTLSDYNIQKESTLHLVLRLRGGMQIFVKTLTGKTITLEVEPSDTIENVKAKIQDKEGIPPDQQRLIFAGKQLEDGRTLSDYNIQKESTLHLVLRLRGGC

Sequence of ubiquitin-7-amino-4-methylcoumarin, P0CG47 (P0CG47 whole entry, looked up): as above
Sequence of hSUMO2-amino-luciferin, P61956 (P61956 1-93): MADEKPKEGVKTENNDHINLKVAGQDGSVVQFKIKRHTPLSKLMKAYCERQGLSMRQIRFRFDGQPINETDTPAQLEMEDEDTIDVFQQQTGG

B1: SENP1 (protein)
chain: EFPEITEEMEKEIKNVFRNGNQDEVLSEAFRLTITRKDIQTLNHLNWLNDEIINFYMNMLMERSKEKGLPSVHAFNTFFFTKLKTAGYQAVKRWTKKVDVFSVDILLVPIHLGVHWCLAVVDFRKKNITYYDSMGGINNEACRILLQYLKQESIDKKRKEFDTNGWQLFSKKSQEIPQQMNGSDCGMFACKYADCITKDRPINFTQQHMPYFRKRMVWEILHRKLL
luminescence signal (S/B), enzyme 200 pM [1]: SENP1, SENP2, and SENP6 (200 pM) on the other hand gave strong signals with hSUMO2-amino-luciferin

B2: UCHL5 (protein)
chain: MTGNAGEWCLMESDPGVFTELIKGFGCRGAQVEEIWSLEPENFEKLKPVHGLIFLFKWQPGEEPAGSVVQDSRLDTIFFAKQVINNACATQAIVSVLLNCTHQDVHLGETLSEFKEFSQSFDAAMKGLALSNSDVIRQVHNSFARQQMFEFDTKTSAKEEDAFHFVSYVPVNGRLYELDGLREGPIDLGACNQDDWISAVRPVIEKRIQKYSEGEIRFNLMAIVSDRKMIYEQKIAELQRQLAEEEPMDTDQGNSMLSAIQSEVAKNQMLIEEEVQKLKRYKIENIRRKHNYLPFIMELLKTLAEHQQLIPLVEKAKEKQNAKKAQETK
Signal to Background, luminescence, DUB 10 nM [2]: 1.4 S/B

B3: SENP6 (protein)
chain: EEETGENHTIFIGPVEKLIVYPPPPAKGGISVTNEDLHCLNEGEFLNDVIIDFYLKYLVLEKLKKEDADRIHIFSSFFYKRLNQRERRNHETTNLSIQQKRHGRVKTWTRHVDIFEKDFIFVPLNEAAHWFLAVVCFPGLEKPKYEPNPHYHENAVIQKCSTVEDSCISSSASEMESCSQNSSAKPVIKKMLNKKHCIAVIDSNPGQEESDPRYKRNICSVKYSVKKINHTASENEEFNKGESTSQKVADRTKSENGLQNESLSSTHHTDGLSKIRLNYSDESPEAGKMLEDELVDFSEDQDNQDDSSDDGFLADDNCSSEIGQWHLKPTICKQPCILLMDSLRGPSRSNVVKILREYLEVEWEVKKGSKRSFSKDVMKGSNPKVPQQNNFSDCGVYVLQYVESFFENPILSFELPMNLANWFPPPRMRTKREEIRNIILKLQEDQSKEKRKHKDTYSTEAPLGEGTEQYVNSISD
luminescence signal (S/B), enzyme 200 pM [1]: SENP1, SENP2, and SENP6 (200 pM) on the other hand gave strong signals with hSUMO2-amino-luciferin | luminescence signal (S/B), enzyme 200 pM [2]: Z-Arg-Leu-Arg-Gly-Gly (SEQ ID NO: 1)-amino-luciferin also gave signals with SENP2 and SENP6 (200 pM)

B4: UCHL3 (ubiquitin carboxyl-terminal hydrolase isozyme L3) (protein)
chain: MEGQRWLPLEANPEVTNQFLKQLGLHPNWQFVDVYGMDPELLSMVPRPVCAVLLLFPITEKYEVFRTEEEEKIKSQGQDVTSSVYFMKQTISNACGTIGLIHAIANNKDKMHFESGSTLKKFLEESVSMSPEERARYLENYDAIRVTHETSAHEGQTEAPSIDEKVDLHFIALVHVDGHLYELDGRKPFPINHGETSDETLLEDAIEVCKKFMERDPDELRFNAIALSAA
signal to background (S/B) ratio, bioluminescence, 20 uM substrate, 40 nM UCHL3 [2]: a signal to background (S/B) ratio of ~1000 was obtained | S/B against the S/B for Ub-AMC, UCHL3 0.01 nM (Ub(1-76)-aminoluciferin): ~50-fold greater than the S/B for Ub-AMC | S/B against the S/B for Ub-rhodamine110, UCHL3 0.01 nM (Ub(1-76)-aminoluciferin): ~200-fold greater than the S/B for Ub-rhodamine110 | signal to background (S/B) ratio, bioluminescence, 100 nM substrate, 32 pM UCHL3 (Ub(1-76)-aminoluciferin): the same S/B ratio of 1000 was obtained with 100 nM Ub-amino-luciferin and UCHL3 at a concentration of 32 pM

B5: Otubain2 (Otub2) (protein)
chain: MSETSFNLISEKCDILSILRDHPENRIYRRKIEELSKRFTAIRKTKGDGNCFYRALGYSYLESLLGKSREIFKFKERVLQTPNDLLAAGFEEHKFRNFFNAFYSVVELVEKDGSVSSLLKVFNDQSASDHIVQFLRLLTSAFIRNRADFFRHFIDEEMDIKDFCTHEVEPMATECDHIQITALSQALSIALQVEYVDEMDTALNHHVFPEAATPSVYLLYKTSHYNILYAADKH
Signal to Background, fluorescence, DUB 10 nM [3]: 1.2 S/B | Signal to Background, fluorescence, DUB 10 nM [4]: 1.7 S/B | Signal to Background, luminescence, DUB 10 nM [2]: 1.3 S/B | Signal to Background, luminescence, DUB 10 nM (Ub(1-76)-aminoluciferin): 980 S/B

B6: JosD2 (protein)
chain: MSQAPGAQPSPPTVYHERQRLELCAVHALNNVLQQQLFSQEAADEICKRLAPDSRLNPHRSLLGTGNYDVNVIMAALQGLGLAAVWWDRRRPLSQLALPQVLGLILNLPSPVSLGLLSLPLRRRHWVALRQVDGVYYNLDSKLRAPEALGDEDGVRAFLAAALAQGLCEVLLVVTKEVEEKGSWLRTD
Signal to Background, fluorescence, DUB 10 nM [3]: 2.1 S/B | Signal to Background, fluorescence, DUB 10 nM [4]: 8.2 S/B | Signal to Background, luminescence, DUB 10 nM [2]: 2.1 S/B | Signal to Background, luminescence, DUB 10 nM (Ub(1-76)-aminoluciferin): 760 S/B

B7: AMSH (associated molecule with the SH3 domain of STAM) (protein)
chain: MSDHGDVSLPPEDRVRALSQLGSAVEVNEDIPPRRYFRSGVEIIRMASIYSEEGNIEHAFILYNKYITLFIEKLPKHRDYKSAVIPEKKDTVKKLKEIAFPKAEELKAELLKRYTKEYTEYNEEKKKEAEELARNMAIQQELEKEKQRVAQQKQQQLEQEQFHAFEEMIRNQELEKERLKIVQEFGKVDPGLGGPLVPDLEKPSLDVFPTLTVSSIQPSDCHTTVRPAKPPVVDRSLKPGALSNSESIPTIDGLRHVVVPGRLCPQFLQLASANTARGVETCGILCGKLMRNEFTITHVLIPKQSAGSDYCNTENEEELFLIQDQQGLITLGWIHTHPTQTAFLSSVDLHTHCSYQMMLPESVAIVCSPKFQETGFFKLTDHGLEEISSCRQKGFHPHSKDPPLFCSCSHVTVVDRAVTITDLR
Signal to Background, luminescence, DUB 10 nM [2]: 1.4 S/B

B8: USP8 (protein)
chain: MPAVASVPKELYLSSSLKDLNKKTEVKPEKISTKSYVHSALKIFKTAEECRLDRDEERAYVLYMKYVTVYNLIKKRPDFKQQQDYFHSILGPGNIKKAVEEAERLSESLKLRYEEAEVRKKLEEKDRQEEAQRLQQKRQETGREDGGTLAKGSLENVLDSKDKTQKSNGEKNEKCETKEKGAITAKELYTMMTDKNISLIIMDARRMQDYQDSCILHSLSVPEEAISPGVTASWIEAHLPDDSKDTWKKRGNVEYVVLLDWFSSAKDLQIGTTLRSLKDALFKWESKTVLRNEPLVLEGGYENWLLCYPQYTTNAKVTPPPRRQNEEVSISLDFTYPSLEESIPSKPAAQTPPASIEVDENIELISGQNERMGPLNISTPVEPVAASKSDVSPIIQPVPSIKNVPQIDRTKKPAVKLPEEHRIKSESTNHEQQSPQSGKVIPDRSTKPVVFSPTLMLTDEEKARIHAETALLMEKNKQEKELRERQQEEQKEKLRKEEQEQKAKKKQEAEENEITEKQQKAKEEMEKKESEQAKKEDKETSAKRGKEITGVKRQSKSEHETSDAKKSVEDRGKRCPTPEIQKKSTGDVPHTSVTGDSGSGKPFKIKGQPESGILRTGTFREDTDDTERNKAQREPLTRARSEEMGRIVPGLPSGWAKFLDPITGTFRYYHSPTNTVHMYPPEMAPSSAPPSTPPTHKAKPQIPAERDREPSKLKRSYSSPDITQAIQEEEKRKPTVTPTVNRENKPTCYPKAEISRLSASQIRNLNPVFGGSGPALTGLRNLGNTCYMNSILQCLCNAPHLADYFNRNCYQDDINRSNLLGHKGEVAEEFGIIMKALWTGQYRYISPKDFKITIGKINDQFAGYSQQDSQELLLFLMDGLHEDLNKADNRKRYKEENNDHLDDFKAAEHAWQKHKQLNESIIVALFQGQFKSTVQCLTCHKKSRTFEAFMYLSLPLASTSKCTLQDCLRLFSKEEKLTDNNRFYCSHCRARRDSLKKIEIWKLPPVLLVHLKRFSYDGRWKQKLQTSVDFPLENLDLSQYVIGPKNNLKKYNLFSVSNHYGGLDGGHYTAYCKNAARQRWFKFDDHEVSDISVSSVKSSAAYILFYTSLGPRVTDVAT
luminescence signal (S/B), enzyme 200 pM [1]: hSUMO2-amino-luciferin yielded virtually no signal with the DUBs USP34, USP7, and USP8 at concentrations equal to 200 pM | S/B against the S/B for both Ub-AMC and Ub-Rhodamine110, enzyme 0.5 nM (Ub(1-76)-aminoluciferin): increased by ~100-fold relative to the S/B for both Ub-AMC and Ub-Rhodamine110

B9: SENP2 (sentrin-specific protease 2) (protein)
chain: DLLELTEDMEKEISNALGHGPQDEILSSAFKLRITRGDIQTLKNYHWLNDEVINFYMNLLVERNKKQGYPALHVFSTFFYPKLKSGGYQAVKRWTKGVNLFEQEIILVPIHRKVHWSLVVIDLRKKCLKYLDSMGQKGHRICEILLQYLQDESKTKRNSDLNLLEWTHHSMKPHEIPQQLNGSDCGMFTCKYADYISRDKPITFTQHQMPLFRKKMVWEILHQQLL
luminescence signal (S/B), enzyme 200 pM [1]: SENP1, SENP2, and SENP6 (200 pM) on the other hand gave strong signals with hSUMO2-amino-luciferin | luminescence signal (S/B), enzyme 200 pM [2]: Z-Arg-Leu-Arg-Gly-Gly (SEQ ID NO: 1)-amino-luciferin also gave signals with SENP2 and SENP6 (200 pM)

B10: USP34 (protein)
chain: VGLTNLGATCYLASTIQQLYMIPEARQAVFTAKYSEDMKHKTTLLELQKMFTYLMESECKAYNPRPFCKTYTMDKQPLNTGEQKDMTEFFTDLITKIEEMSPELKNTVKSLFGGVITNNVVSLDCEHVSQTAEEFYTVRCQVADMKNIYESLDEVTIKDTLEGDNMYTCSHCGKKVRAEKRACFKKLPRILSFNTMRYTFNMVTMMKEKVNTHFSFPLRLDMTPYTEDFLMGKSERKEGFKEVSDHSKDSESYEYDLIGVTVHTGTADGGHYYSFIRDIVNPHAYKNNKWYLFNDAEVKPFDSAQLASECFGGEMTTKTYDSVTDKFMDFSFEKTHSAYMLFYKRM
luminescence signal (S/B), enzyme 200 pM [1]: hSUMO2-amino-luciferin yielded virtually no signal with the DUBs USP34, USP7, and USP8 at concentrations equal to 200 pM

B11: USP2core (the common catalytic core domain of the two isoforms of USP2, USP2a and USP2b) (protein)
chain: NSKSAQGLAGLRNLGNTCFMNSILQCLSNTRELRDYCLQRLYMRDLHHGSNAHTALVEEFAKLIQTIWTSSPNDVVSPSEFKTQIQRYAPRFVGYNQQDAQEFLRFLLDGLHNEVNRVTLRPKSNPENLDHLPDDEKGRQMWRKYLEREDSRIGDLFVGQLKSSLTCTDCGYCSTVFDPFWDLSLPIAKRGYPEVTLMDCMRLFTKEDVLDGDEKPTCCRCRGRKRCIKKFSIQRFPKILVLHLKRFSESRIRTSKLTTFVNFPLRDLDLREFASENTNHAVYNLYAVSNHSGTTMGGHYTAYCRSPGTGEWHTFNDSSVTPMSSSQVRTSDAYLLFYELASPPSRM
S/B against the S/B for both Ub-AMC and Ub-Rhodamine110, enzyme 0.5 nM (Ub(1-76)-aminoluciferin): increased by ~100-fold relative to the S/B for both Ub-AMC and Ub-Rhodamine110

B12: Ataxin3-like (protein)
chain: MDFIFHEKQEGFLCAQHCLNNLLQGEYFSPVELASIAHQLDEEERMRMAEGGVTSEEYLAFLQQPSENMDDTGFFSIQVISNALKFWGLEIIHFNNPEYQKLGIDPINERSFICNYKQHWFTIRKFGKHWFNLNSLLAGPELISDTCLANFLARLQQQAYSVFVVKGDLPDCEADQLLQIISVEEMDTPKLNGKKLVKQKEHRVYKTVLEKVSEESDESGTSDQDEEDFQRALELSRQETNREDEHLRSTIELSMQGSSGNTSQDLPKTSCVTPASEQPKKIKEDYFEKHQQEQKQQQQQSDLPGHSSYLHERPTTSSRAIESDLSDDISEGTVQAAVDTILEIMRKNLKIKGEK
Signal to Background, fluorescence, DUB 10 nM [3]: 1.1 S/B | Signal to Background, fluorescence, DUB 10 nM [4]: 1.6 S/B | Signal to Background, luminescence, DUB 10 nM [2]: 1.5 S/B | Signal to Background, luminescence, DUB 10 nM (Ub(1-76)-aminoluciferin): 120 S/B
